Target: IL-8 receptors on human neutrophils
Assay: 125I-IL-8 competition with unlabelled IL-8, Scatchard analysis, human neutrophils

human 72 amino acid IL-8 (interleukin-8), recombinant, made in E. coli (from UniProt P10145 28-99) (ligand)
binding sites/cell (binding sites/cell): 31000

Source: US20040037830A1
